What follows are sequences tested on Escherichia coli TOP10 (assay: shrunken log2 fold change of peptide-encoding DNA abundance (4.5 h post-induction vs induction); higher = less antimicrobial activity (less host growth inhibition)). Details: time post-induction: 4.5 h; library: site-saturation at positions 5, 18, 19, 20.
In the case of RRIRYRPPRLPRPRPRPIEQPRP, the “shrunken log2 fold change” value was -0.00931.
In the case of RRIRGRPPRLPRPRPRPFQSPRP, the “shrunken log2 fold change” value was -0.00674.
With RRIRARPPRLPRPRPRPVERPRP the “shrunken log2 fold change” value was 0.732.
With RRIRCRPPRLPRPRPRPFQYPRP the “shrunken log2 fold change” value was -1.21.
For RRIRMRPPRLPRPRPRPMVPPRP, the “shrunken log2 fold change” value was -0.0114.
For RRIRQRPPRLPRPRPRPPKTPRP, the “shrunken log2 fold change” value was 0.113.
For RRIRSRPPRLPRPRPRPSEIPRP, the “shrunken log2 fold change” value was 0.0398.
RRIRQRPPRLPRPRPRPIAFPRP was tested, and the “shrunken log2 fold change” value was -0.168.
In the case of RRIRHRPPRLPRPRPRPYWYPRP, the “shrunken log2 fold change” value was -1.25.
In the case of RRIRARPPRLPRPRPRPNASPRP, the “shrunken log2 fold change” value was 0.711.
For RRIRYRPPRLPRPRPRPPWHPRP, the “shrunken log2 fold change” value was -0.507.
In the case of RRIRKRPPRLPRPRPRPVACPRP, the “shrunken log2 fold change” value was -0.0228.
With RRIRQRPPRLPRPRPRPCAHPRP the “shrunken log2 fold change” value was -0.256.
With RRIRQRPPRLPRPRPRPAEKPRP the “shrunken log2 fold change” value was -0.00963.
In the case of RRIRQRPPRLPRPRPRPSMVPRP, the “shrunken log2 fold change” value was -0.632.
RRIRPRPPRLPRPRPRPKCKPRP was tested, and the “shrunken log2 fold change” value was -0.207.
With RRIRWRPPRLPRPRPRPCWDPRP the “shrunken log2 fold change” value was 0.0945.
With RRIRCRPPRLPRPRPRPTTKPRP the “shrunken log2 fold change” value was -0.0602.
RRIRYRPPRLPRPRPRPHWVPRP was tested, and the “shrunken log2 fold change” value was 0.0405.
In the case of RRIRVRPPRLPRPRPRPWGTPRP, the “shrunken log2 fold change” value was -0.402.
For RRIRRRPPRLPRPRPRPWCLPRP, the “shrunken log2 fold change” value was -0.214.
In the case of RRIRPRPPRLPRPRPRPPAQPRP, the “shrunken log2 fold change” value was 0.57.
In the case of RRIRQRPPRLPRPRPRPCFDPRP, the “shrunken log2 fold change” value was -0.103.
For RRIRARPPRLPRPRPRPSWGPRP, the “shrunken log2 fold change” value was 0.0646.
With RRIRARPPRLPRPRPRPQDTPRP the “shrunken log2 fold change” value was -0.179.
For RRIRARPPRLPRPRPRPIRMPRP, the “shrunken log2 fold change” value was 0.183.
For RRIRTRPPRLPRPRPRPYKRPRP, the “shrunken log2 fold change” value was -0.29.
For RRIRPRPPRLPRPRPRPRKSPRP, the “shrunken log2 fold change” value was 0.112.
With RRIRNRPPRLPRPRPRPAWFPRP the “shrunken log2 fold change” value was 0.294.
For RRIRVRPPRLPRPRPRPLWYPRP, the “shrunken log2 fold change” value was -0.263.
With RRIRCRPPRLPRPRPRPRDMPRP the “shrunken log2 fold change” value was -0.167.
For RRIRRRPPRLPRPRPRPTIVPRP, the “shrunken log2 fold change” value was -0.111.
In the case of RRIRCRPPRLPRPRPRPYYPPRP, the “shrunken log2 fold change” value was -1.27.
With RRIRIRPPRLPRPRPRPTWCPRP the “shrunken log2 fold change” value was 0.0363.
With RRIRQRPPRLPRPRPRPQTGPRP the “shrunken log2 fold change” value was -0.137.
In the case of RRIRQRPPRLPRPRPRPVCMPRP, the “shrunken log2 fold change” value was -0.0787.
For RRIRMRPPRLPRPRPRPQSTPRP, the “shrunken log2 fold change” value was 0.21.
With RRIRVRPPRLPRPRPRPVLSPRP the “shrunken log2 fold change” value was -0.11.
In the case of RRIRSRPPRLPRPRPRPGNYPRP, the “shrunken log2 fold change” value was -0.0556.
With RRIRYRPPRLPRPRPRPDCLPRP the “shrunken log2 fold change” value was -0.209.
RRIRLRPPRLPRPRPRPCLRPRP was tested, and the “shrunken log2 fold change” value was -0.0817.
For RRIRMRPPRLPRPRPRPDKCPRP, the “shrunken log2 fold change” value was -0.0194.
For RRIRPRPPRLPRPRPRPNLNPRP, the “shrunken log2 fold change” value was -0.369.
With RRIRKRPPRLPRPRPRPQTAPRP the “shrunken log2 fold change” value was 0.385.
With RRIRVRPPRLPRPRPRPWVVPRP the “shrunken log2 fold change” value was -0.0754.
For RRIRIRPPRLPRPRPRPFSAPRP, the “shrunken log2 fold change” value was -0.517.
With RRIRGRPPRLPRPRPRPWEPPRP the “shrunken log2 fold change” value was 0.177.
RRIRMRPPRLPRPRPRPADYPRP was tested, and the “shrunken log2 fold change” value was 0.0259.
With RRIRCRPPRLPRPRPRPPPCPRP the “shrunken log2 fold change” value was 1.07.
In the case of RRIRARPPRLPRPRPRPACDPRP, the “shrunken log2 fold change” value was 0.851.
For RRIRNRPPRLPRPRPRPPALPRP, the “shrunken log2 fold change” value was 0.132.
In the case of RRIRNRPPRLPRPRPRPWMDPRP, the “shrunken log2 fold change” value was -0.165.
With RRIRYRPPRLPRPRPRPQCRPRP the “shrunken log2 fold change” value was -0.23.
With RRIRMRPPRLPRPRPRPNYQPRP the “shrunken log2 fold change” value was -0.23.
In the case of RRIRTRPPRLPRPRPRPNWAPRP, the “shrunken log2 fold change” value was -0.243.
RRIRERPPRLPRPRPRPIFLPRP was tested, and the “shrunken log2 fold change” value was -0.288.
RRIRARPPRLPRPRPRPIWSPRP was tested, and the “shrunken log2 fold change” value was 1.14.
In the case of RRIRGRPPRLPRPRPRPVAPPRP, the “shrunken log2 fold change” value was 1.18.
In the case of RRIRGRPPRLPRPRPRPEREPRP, the “shrunken log2 fold change” value was 1.1.
RRIRERPPRLPRPRPRPQANPRP was tested, and the “shrunken log2 fold change” value was -0.0396.
RRIRERPPRLPRPRPRPCCCPRP was tested, and the “shrunken log2 fold change” value was 0.15.
RRIRIRPPRLPRPRPRPQNFPRP was tested, and the “shrunken log2 fold change” value was 0.0159.
In the case of RRIRFRPPRLPRPRPRPHMDPRP, the “shrunken log2 fold change” value was -1.29.
With RRIRIRPPRLPRPRPRPFCIPRP the “shrunken log2 fold change” value was -0.581.
With RRIRYRPPRLPRPRPRPPNQPRP the “shrunken log2 fold change” value was -0.44.
RRIRGRPPRLPRPRPRPHMEPRP was tested, and the “shrunken log2 fold change” value was 0.0707.
For RRIRYRPPRLPRPRPRPKSNPRP, the “shrunken log2 fold change” value was -0.206.
RRIRVRPPRLPRPRPRPHTKPRP was tested, and the “shrunken log2 fold change” value was 0.11.
With RRIRFRPPRLPRPRPRPKFFPRP the “shrunken log2 fold change” value was -0.00377.
In the case of RRIRCRPPRLPRPRPRPIPSPRP, the “shrunken log2 fold change” value was -0.308.
RRIRLRPPRLPRPRPRPHRRPRP was tested, and the “shrunken log2 fold change” value was 0.0082.
RRIRSRPPRLPRPRPRPIFPPRP was tested, and the “shrunken log2 fold change” value was 1.04.
For RRIRERPPRLPRPRPRPMDKPRP, the “shrunken log2 fold change” value was -0.219.
RRIRYRPPRLPRPRPRPVVFPRP was tested, and the “shrunken log2 fold change” value was -0.747.
In the case of RRIRTRPPRLPRPRPRPWRFPRP, the “shrunken log2 fold change” value was -0.0156.
With RRIRCRPPRLPRPRPRPSRQPRP the “shrunken log2 fold change” value was 0.222.
In the case of RRIRIRPPRLPRPRPRPMMEPRP, the “shrunken log2 fold change” value was -0.599.
For RRIRKRPPRLPRPRPRPTDIPRP, the “shrunken log2 fold change” value was -0.0678.
RRIRPRPPRLPRPRPRPSYNPRP was tested, and the “shrunken log2 fold change” value was -0.671.
With RRIRSRPPRLPRPRPRPWNCPRP the “shrunken log2 fold change” value was -0.223.
In the case of RRIRMRPPRLPRPRPRPRKTPRP, the “shrunken log2 fold change” value was 0.514.
RRIRLRPPRLPRPRPRPAAPPRP was tested, and the “shrunken log2 fold change” value was 0.545.
In the case of RRIRWRPPRLPRPRPRPRRGPRP, the “shrunken log2 fold change” value was 0.528.
For RRIRTRPPRLPRPRPRPNVLPRP, the “shrunken log2 fold change” value was -0.0117.
In the case of RRIRPRPPRLPRPRPRPQNGPRP, the “shrunken log2 fold change” value was -0.281.
With RRIRARPPRLPRPRPRPPRKPRP the “shrunken log2 fold change” value was 1.1.
For RRIRHRPPRLPRPRPRPINLPRP, the “shrunken log2 fold change” value was -0.0477.
In the case of RRIRYRPPRLPRPRPRPYVNPRP, the “shrunken log2 fold change” value was -0.361.
RRIRGRPPRLPRPRPRPFSVPRP was tested, and the “shrunken log2 fold change” value was 0.429.
In the case of RRIRNRPPRLPRPRPRPFMFPRP, the “shrunken log2 fold change” value was -0.399.
In the case of RRIRYRPPRLPRPRPRPQYRPRP, the “shrunken log2 fold change” value was -0.148.
In the case of RRIRHRPPRLPRPRPRPIITPRP, the “shrunken log2 fold change” value was -1.46.
In the case of RRIRLRPPRLPRPRPRPCHRPRP, the “shrunken log2 fold change” value was 0.00936.
RRIRQRPPRLPRPRPRPTGPPRP was tested, and the “shrunken log2 fold change” value was 0.22.
With RRIRPRPPRLPRPRPRPFVCPRP the “shrunken log2 fold change” value was -0.395.
In the case of RRIRPRPPRLPRPRPRPCRLPRP, the “shrunken log2 fold change” value was -0.29.
With RRIRTRPPRLPRPRPRPHMDPRP the “shrunken log2 fold change” value was -0.422.
In the case of RRIRRRPPRLPRPRPRPFRLPRP, the “shrunken log2 fold change” value was -0.143.
RRIRVRPPRLPRPRPRPHTGPRP was tested, and the “shrunken log2 fold change” value was -0.495.
For RRIRGRPPRLPRPRPRPSCQPRP, the “shrunken log2 fold change” value was 0.925.
In the case of RRIRIRPPRLPRPRPRPFEQPRP, the “shrunken log2 fold change” value was -0.0348.
With RRIRGRPPRLPRPRPRPFCEPRP the “shrunken log2 fold change” value was 0.403.
For RRIRKRPPRLPRPRPRPCEHPRP, the “shrunken log2 fold change” value was 0.015.
For RRIRSRPPRLPRPRPRPKEDPRP, the “shrunken log2 fold change” value was 1.6.
For RRIRRRPPRLPRPRPRPQLHPRP, the “shrunken log2 fold change” value was -0.00676.
RRIRCRPPRLPRPRPRPCYQPRP was tested, and the “shrunken log2 fold change” value was -0.182.
RRIRHRPPRLPRPRPRPEMGPRP was tested, and the “shrunken log2 fold change” value was 0.00396.
With RRIRHRPPRLPRPRPRPVFWPRP the “shrunken log2 fold change” value was 0.0698.
In the case of RRIRWRPPRLPRPRPRPSHAPRP, the “shrunken log2 fold change” value was -0.0866.
RRIRHRPPRLPRPRPRPVPTPRP was tested, and the “shrunken log2 fold change” value was 0.144.
In the case of RRIRKRPPRLPRPRPRPAWTPRP, the “shrunken log2 fold change” value was 0.261.
With RRIRYRPPRLPRPRPRPCLRPRP the “shrunken log2 fold change” value was -0.286.
RRIRLRPPRLPRPRPRPIRNPRP was tested, and the “shrunken log2 fold change” value was -0.45.
With RRIRLRPPRLPRPRPRPHWSPRP the “shrunken log2 fold change” value was 0.0161.
For RRIRGRPPRLPRPRPRPLMMPRP, the “shrunken log2 fold change” value was 0.647.
RRIRNRPPRLPRPRPRPWLAPRP was tested, and the “shrunken log2 fold change” value was -0.254.
RRIRRRPPRLPRPRPRPTVRPRP was tested, and the “shrunken log2 fold change” value was -0.00514.
With RRIRVRPPRLPRPRPRPTVEPRP the “shrunken log2 fold change” value was 0.195.
For RRIRERPPRLPRPRPRPYVLPRP, the “shrunken log2 fold change” value was -0.125.
In the case of RRIRFRPPRLPRPRPRPANYPRP, the “shrunken log2 fold change” value was -0.43.
RRIRRRPPRLPRPRPRPMVSPRP was tested, and the “shrunken log2 fold change” value was 0.0678.
With RRIRMRPPRLPRPRPRPTGGPRP the “shrunken log2 fold change” value was 0.454.
For RRIRGRPPRLPRPRPRPWQEPRP, the “shrunken log2 fold change” value was -0.0457.
In the case of RRIRARPPRLPRPRPRPACWPRP, the “shrunken log2 fold change” value was 0.849.
With RRIRDRPPRLPRPRPRPCWIPRP the “shrunken log2 fold change” value was -0.255.
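Further: peptides expressed intracellularly from a pBAD plasmid library in pooled LB shake-flask culture, induced with 0.3% L-arabinose, DNA abundance read by NGS, three biological replicates, DESeq2 with apeglm shrinkage.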
